Experimental data taken from patent US20240117018A1.

Tests used:
Test in all cases: cell-based or functional assay
[1] = biological target: CAAN5342.A2 Env pseudovirus (HIV-1)
[2] = biological target: ZM135M.PL10a Env pseudovirus (HIV-1)
[3] = biological target: 1054_07_TC4_1499 Env pseudovirus (HIV-1)
[4] = biological target: Q842.d12 Env pseudovirus (HIV-1)
[5] = biological target: 1394C9G1(Rev-) Env pseudovirus (HIV-1)
[6] = biological target: 6535.3 Env pseudovirus (HIV-1)
[7] = biological target: ZM247v1(Rev-) Env pseudovirus (HIV-1)
[8] = biological target: CNE52 Env pseudovirus (HIV-1)
[9] = biological target: 62357_14_D3_4589 Env pseudovirus (HIV-1)
[10] = biological target: Q259.d2.17 Env pseudovirus (HIV-1)
[11] = biological target: CAP45.2.00.G3 Env pseudovirus (HIV-1)
[12] = biological target: HIV-001428-2.42 Env pseudovirus (HIV-1)
[13] = biological target: CNE58 Env pseudovirus (HIV-1)
[14] = biological target: Ce1172_H1 Env pseudovirus (HIV-1)
[15] = biological target: QH0692.42 Env pseudovirus (HIV-1)
[16] = biological target: 9004SS_A3_4 Env pseudovirus (HIV-1)
[17] = biological target: 263-8 Env pseudovirus (HIV-1)
[18] = biological target: WEAU_d15_410_787 Env pseudovirus (HIV-1)
[19] = biological target: Ce1176_A3 Env pseudovirus (HIV-1)
[20] = biological target: RHPA4259.7 Env pseudovirus (HIV-1)
[21] = biological target: HIV-0013095-2.11 Env pseudovirus (HIV-1)
[22] = biological target: ZM197M.PB7 Env pseudovirus (HIV-1)
[23] = biological target: 928-28 Env pseudovirus (HIV-1)
[24] = biological target: Du422.1 Env pseudovirus (HIV-1)
[25] = biological target: 1006_11_C3_1601 Env pseudovirus (HIV-1)
[26] = biological target: TRO.11 Env pseudovirus (HIV-1)
[27] = biological target: REJO4541.67 Env pseudovirus (HIV-1)
[28] = biological target: CNE53 Env pseudovirus (HIV-1)
[29] = biological target: AC10.0.29 Env pseudovirus (HIV-1)
[30] = biological target: 246F C1G Env pseudovirus (HIV-1)
[31] = biological target: HIV-16845-2.22 Env pseudovirus (HIV-1)
[32] = biological target: CNE17 Env pseudovirus (HIV-1)
[33] = biological target: Ce703010054_2A2 Env pseudovirus (HIV-1)
[34] = biological target: CNE19 Env pseudovirus (HIV-1)
[35] = biological target: MuLV envelope (negative control pseudovirus) (MuLV)
[36] = biological target: 191955_A11 Env pseudovirus (HIV-1)

B1: N49P23 (antibody, V domains shown)
VH: QVRLVQSGAGARKTGASMKLSCSTSGYTFTTHHGHFINWVRQARGQGLEWMGWMNPMTGQMNIEGKFQGRVTLTRDIYSDTAYMEMTRLTTGDTGTYYCARGDFGQNYPFHYWGQGSLVIVSS
VL: LSALTQPASVSGSPGQSVTISCSGTNRYLVSWYQQHPDKAPKLIIYDDNKRPSGISDRFSASRPDDTASLTISGLQTGDEATYWCASYERFGGGTRLTVLS
B1 was tested, and the IC50 [1] was 0.412 µg/mL, the IC80 [1] was 1.38 µg/mL and the MPI [1] was 100. The IC50 [2] was > 50 µg/mL, the IC80 [2] was > 50 µg/mL and the MPI [2] was 36. It also gave an IC50 [3] of 0.272 µg/mL, an IC80 [3] of 1.21 µg/mL and an MPI [3] of 100. The IC50 [4] was 7 ng/mL, the IC80 [4] was 0.022 µg/mL and the MPI [4] was 100. The IC50 [5] was > 50 µg/mL, the IC80 [5] was > 50 µg/mL and the MPI [5] was 34. The IC50 [6] was 0.127 µg/mL, the IC80 [6] was 0.855 µg/mL and the MPI [6] was 100. The IC50 [7] was > 50 µg/mL, the IC80 [7] was > 50 µg/mL and the MPI [7] was 24. It also gave an IC50 [8] of 0.014 µg/mL, an IC80 [8] of 0.051 µg/mL and an MPI [8] of 100. It also gave an IC50 [9] of 0.057 µg/mL, an IC80 [9] of 0.76 µg/mL and an MPI [9] of 95. It also gave an IC50 [10] of 0.362 µg/mL, an IC80 [10] of 7.79 µg/mL and an MPI [10] of 91. For the same binder, the IC50 [11] was > 50 µg/mL, the IC80 [11] was > 50 µg/mL and the MPI [11] was 0. It also gave an IC50 [12] of 0.036 µg/mL, an IC80 [12] of 0.241 µg/mL and an MPI [12] of 98. The IC50 [13] was > 50 µg/mL, the IC80 [13] was > 50 µg/mL and the MPI [13] was 9. The IC50 [14] was > 50 µg/mL, the IC80 [14] was > 50 µg/mL and the MPI [14] was 0. The IC50 [15] was 0.557 µg/mL, the IC80 [15] was 2.51 µg/mL and the MPI [15] was 100. For the same binder, the IC50 [16] was 0.043 µg/mL, the IC80 [16] was 0.223 µg/mL and the MPI [16] was 100. It also gave an IC50 [17] of 0.012 µg/mL, an IC80 [17] of 0.096 µg/mL and an MPI [17] of 100. For the same binder, the IC50 [18] was 9 ng/mL, the IC80 [18] was 0.031 µg/mL and the MPI [18] was 100. For the same binder, the IC50 [19] was 0.297 µg/mL, the IC80 [19] was 1.38 µg/mL and the MPI [19] was 100. For the same binder, the IC50 [20] was 0.01 µg/mL, the IC80 [20] was 0.04 µg/mL and the MPI [20] was 100. It also gave an IC50 [21] of 0.114 µg/mL, an IC80 [21] of 0.899 µg/mL and an MPI [21] of 96. For the same binder, the IC50 [22] was 0.1 µg/mL, the IC80 [22] was 0.385 µg/mL and the MPI [22] was 100. It also gave an IC50 [23] of 0.021 µg/mL, an IC80 [23] of 0.122 µg/mL and an MPI [23] of 100. The IC50 [24] was > 50 µg/mL, the IC80 [24] was > 50 µg/mL and the MPI [24] was 4. It also gave an IC50 [25] of 0.015 µg/mL, an IC80 [25] of 0.054 µg/mL and an MPI [25] of 100. It also gave an IC50 [26] of 0.094 µg/mL, an IC80 [26] of 0.336 µg/mL and an MPI [26] of 100. The IC50 [27] was 8 ng/mL, the IC80 [27] was 0.05 µg/mL and the MPI [27] was 100. For the same binder, the IC50 [28] was 0.026 µg/mL, the IC80 [28] was 0.095 µg/mL and the MPI [28] was 100. The IC50 [29] was > 50 µg/mL, the IC80 [29] was > 50 µg/mL and the MPI [29] was 0. For the same binder, the IC50 [30] was > 50 µg/mL, the IC80 [30] was > 50 µg/mL and the MPI [30] was 11. The IC50 [31] was > 50 µg/mL, the IC80 [31] was > 50 µg/mL and the MPI [31] was 20. It also gave an IC50 [32] of 0.221 µg/mL, an IC80 [32] of 0.809 µg/mL and an MPI [32] of 100. The IC50 [33] was > 50 µg/mL, the IC80 [33] was > 50 µg/mL and the MPI [33] was 35. For the same binder, the IC50 [34] was > 50 µg/mL, the IC80 [34] was > 50 µg/mL and the MPI [34] was 40. For the same binder, the IC50 [35] was > 50 µg/mL, the IC80 [35] was > 50 µg/mL and the MPI [35] was 9. The IC50 [36] was > 50 µg/mL, the IC80 [36] was > 50 µg/mL and the MPI [36] was 31.
